According to the supplement of paper PMC12042874:
± gives the uncertainty stated by the source.

Experiment: amyloid nucleation score (Sup35N fusion, yeast selection) (log enrichment); library NNK2; higher = more nucleation; inactive = no reads after selection
Summary of the method: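 Sup35N fusions to peptides of 20 random codons were expressed in psi-negative yeast, induced 24 hours with 100 μM copper sulfate, and grown 7 days at 30°C on medium lacking adenine and uracil. Input and output plasmid inserts were sequenced by Illumina. The nucleation score is the DiMSum log enrichment of output over input reads, centred on the mode score of non-aggregating sequences. Sequences with under 100 input reads were excluded.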

Row | Substance | amyloid nucleation score
1 | VGSGGKGSMFYGYIELIFM | -0.641 ± 1.1
2 | NVVSEEIMVCIVVSDLKRFR | 0.619 ± 0.29
3 | RIRVVPKWSFISNRRNCGKL | 4.25 ± 0.054
4 | TVFFF | 2.6 ± 0.11
5 | NLLNKTWFVSILIKHTCMYS | 0.659 ± 0.56
6 | SNRRKSAGDSFVRWMCCLT | 2.61 ± 0.15
7 | KPGRYRDVIRFLSDLLECNG | inactive
8 | VLCGNSFMNCCSAFRCGSAV | 8.923 ± 0.059
9 | VAMVLLC | 1.03 ± 0.21
10 | EFKHSLIVASARRRNDFGYR | 0.224 ± 0.43
11 | LVYWRQYYCKGRVRLLC | inactive
12 | LLYRYYSF | 3.72 ± 0.056
13 | YNSVVADKWCSFSK | 0.155 ± 1.1
14 | NTEFIFQELRVMSHEVCIHI | inactive
15 | NFFPCACNNGAPIKEDFTCR | 2.84 ± 0.17
16 | GGILH | -0.254 ± 1
17 | VCVGYFCC | 5.789 ± 0.024
18 | KIKYYEAIDGACNSGWFDLG | 2.92 ± 0.057
19 | GTRNVLIHAK | -1.26 ± 1.1
20 | SISIPCRYYKGLRSTSLYSR | -0.264 ± 0.26
21 | GLIGCAMSVVPHEELCVRTC | 1.07 ± 0.29
22 | RKEIRGLTMTRPIVDPMRTK | 0.932 ± 0.81

Row | Substance | amyloid nucleation score
23 | FRRVLCYKYYSFA | 2.42 ± 0.14
24 | MLIPRVFISHVDICGYISCS | 4.626 ± 0.036
25 | FYFDGQLV | -0.743 ± 0.76
26 | TCYLGPWCPIHDTRIRPGWV | 0.698 ± 0.21
27 | CFIFKWFYYCLSVSTIDMSV | -2.48 ± 1.1
28 | SFVRPGGWPNK | -0.264 ± 0.76
29 | LRNHSHA | 0.685 ± 0.41
30 | FYYSDDEFKCTVEIPVIYLI | -1.07 ± 0.5
31 | RVLTKYMFMILFSSSFSYVR | 0.154 ± 0.5
32 | VDVFPAPSHRCGLMNLCNLV | 0.969 ± 0.28
33 | QGPHARRHPTFRHKLYVLVI | 3.54 ± 0.099
34 | ILFCLF | 8.143 ± 0.033
35 | GGLVVECRVGW | 3.42 ± 0.13
36 | SCHVFFVTIEGNASSANGHR | 8.14 ± 0.07
37 | LVWWLSNRV | 2.41 ± 0.088
38 | LQSRWCRVKETWQS | 1.66 ± 0.32
39 | SNLEHSGWRTRMRWGL | 5.5 ± 0.079
40 | HLHGCIAMCASSSLIAGCTE | -0.603 ± 0.78
41 | AWYWN | -0.49 ± 0.33
42 | CKSLLVKC | inactive
43 | LYGHGSILVRTNGGISFRRN | -1.02 ± 1.1
44 | TVRLVWSWMHTPLFGPVTCA | 0.073 ± 0.56

Row | Substance | amyloid nucleation score
45 | TDIRTSGDERWAFDSMRTGD | 0.701 ± 0.37
46 | VLFKIIRLRLENIPSSWWVI | 0.152 ± 0.32
47 | SCAVSIVTGRGVHSFVKAWF | 0.547 ± 0.17
48 | PILGGEFDAGWRNFLFWKGW | 0.448 ± 0.66
49 | FVYNLTKTGLCYAQSVKYHN | -0.483 ± 0.39
50 | LQLCCAMVS | 0.883 ± 0.44
51 | CTIVYF | 1.13 ± 0.27
52 | SYIWSECRTNMIVWASNTLK | 3.81 ± 0.063
53 | MKSNSLSGRCSQFHLES | -0.184 ± 1.1
54 | KVVIYGCSS | -0.183 ± 0.65
55 | LSLFISGDYWVIQGNIY | 3.65 ± 0.059
56 | NAICPIKVSGFGCLSKR | 0.092 ± 1.1
57 | PSKPC | -1.72 ± 0.75
58 | FRTASLHVCLFLSG | -0.316 ± 0.61
59 | RFEWVPGLSKGN | inactive
60 | RILVTGI | -0.653 ± 0.79
61 | FLLRHSSCEVIGC | 0.665 ± 0.36
62 | FDPIRWLLNYIFMASTLYVE | -0.804 ± 0.44
63 | VMDCLMLSNMHLYIVLESKS | 5.08 ± 0.061
64 | VWLRYYMCFNFVWSIVGVRI | 3.81 ± 0.052
65 | VGETLLSFCINWRVGYMFGN | -0.518 ± 0.5
66 | EYFMATE | -0.248 ± 0.35

Row | Substance | amyloid nucleation score
67 | KATDSRYRFFMILMFYMTIY | inactive
68 | QLRVYEKFKWCQREWRMDRF | 4.623 ± 0.034
69 | WLKVS | -1.48 ± 0.55
70 | NELCRKPLNLGCISSYVFIE | -0.584 ± 0.3
71 | VLLKLVDLWL | -0.017 ± 0.54
72 | RFDSPG | 0.558 ± 0.4
73 | RCILASAGWAIVGKNCEAPQ | 0.647 ± 0.26
74 | VIDTCGDVNRSRGQVLSGGV | 0.293 ± 0.3
75 | MSNMVSSMGSRMFLIICVVS | 0.68 ± 0.4
76 | DAHTMIGRYTDSSLRHRTWV | 1.05 ± 0.3
77 | FDRRVDV | -0.076 ± 0.29
78 | TDCFQFS | 0.713 ± 0.58
79 | TYTVRFENSRRTGDN | -0.13 ± 0.41
80 | YKVNWG | 0.854 ± 0.47
81 | SSRVDVVISHQREAIGSRQC | 5.11 ± 0.077
82 | GIGFKWGTILLKSLGNIYSQ | -0.263 ± 0.76
83 | PMRMKFCQWLFHPP | -0.983 ± 0.61
84 | TLSTGIFLLHLAYSSLSIDS | 0.637 ± 0.35
85 | GMAFAKA | 0.077 ± 0.63
86 | LVDKVYNDAILLVWDNESRT | -0.464 ± 0.64
87 | NLQLVGVMNPDPCESWN | 0.222 ± 0.31
